{"source": "paper PMC3036652", "about": "“Functional Analysis of an Acid Adaptive DNA Adenine Methyltransferase from Helicobacter pylori 26695” (PLoS ONE, 2011)", "molecules": {"B1": {"name": "duplex 18 (dsDNA)", "DNA 1": "GATCAATAGATGCGCAGATCATTTACATT", "DNA 2": "AATGTAAATGATCTGCGCATCTATTGATC"}, "B2": {"name": "duplex 19 (lacks GCAG) (dsDNA)", "DNA 1": "GATCAATAGATCCCCGGATCATTTACATT", "DNA 2": "AATGTAAATGATCCGGGGATCTATTGATC"}}, "key": {"HP0593 MTase": {"target": "T1, HP0593 MTase (Helicobacter pylori, UniProt O25315)", "T1 construct": "gene HP_0593; full-length, 1797 bp gene in pET14b (NdeI/BamHI), N-terminal His6 tag kept, E. coli BL21(DE3) pLysS; monomer and dimer in solution, functions as dimer", "T1 sequence (O25315 1-598)": "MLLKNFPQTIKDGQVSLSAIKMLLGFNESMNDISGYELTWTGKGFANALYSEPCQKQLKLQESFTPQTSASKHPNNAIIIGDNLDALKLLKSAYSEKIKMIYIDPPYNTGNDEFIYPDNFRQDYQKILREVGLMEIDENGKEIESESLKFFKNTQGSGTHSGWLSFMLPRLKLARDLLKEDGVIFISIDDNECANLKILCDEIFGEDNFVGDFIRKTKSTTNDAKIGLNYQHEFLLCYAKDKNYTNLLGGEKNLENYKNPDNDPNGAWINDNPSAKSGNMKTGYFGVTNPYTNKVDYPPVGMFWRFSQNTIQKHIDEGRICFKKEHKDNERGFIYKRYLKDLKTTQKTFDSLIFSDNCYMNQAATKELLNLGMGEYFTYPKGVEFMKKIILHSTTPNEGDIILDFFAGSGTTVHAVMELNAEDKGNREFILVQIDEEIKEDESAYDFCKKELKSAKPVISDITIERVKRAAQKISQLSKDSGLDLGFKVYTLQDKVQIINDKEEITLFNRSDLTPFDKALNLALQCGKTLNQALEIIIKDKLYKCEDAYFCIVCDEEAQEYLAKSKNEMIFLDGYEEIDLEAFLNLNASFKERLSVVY", "assay": "EMSA of enzyme with […]-labelled duplex […] DNA", "assay_type": "binding", "details": "on ice, no divalent metal, ternary complex with cognate DNA, indirect read-out"}, "[1]": {"target": "HP0593 DNA-(N6-adenine)-methyltransferase (Helicobacter pylori 26695)", "assay": "SEC"}, "[2]": {"target": "HP0593 DNA-(N6-adenine)-methyltransferase (Helicobacter pylori 26695)", "assay": "cross-linking"}, "[3]": {"target": "HP0593 DNA-(N6-adenine)-methyltransferase (Helicobacter pylori 26695)", "assay": "cross-linking; 0.06% and 0.08% glutaraldehyde-treated HP0593 MTase, products analysed by MALDI-MS; data not shown"}, "[4]": {"target": "HP0593 DNA-(N6-adenine)-methyltransferase (Helicobacter pylori 26695)", "assay": "SEC; reinjection of the dimer peak of the gel filtration; data not shown"}, "[5]": {"target": "T2, HP0593 DNA-(N6-adenine)-methyltransferase (HP0593 MTase) (Helicobacter pylori 26695, UniProt O25315 1-598)", "T2 sequence": "T1 sequence (O25315 1-598)", "assay": "SPR; 1.0 mM MnCl2; EMSA: 10 mM potassium phosphate pH 5.5, 7 mM β-mercaptoethanol, 10% glycerol, no divalent metal, 10 min on ice, 0.5-5.0 µM protein, ~100 nM DNA, gel 0.5x TBE 4°C; SPR: 10 mM HEPES pH 7.4, 100 mM NaCl, 0.05% P-20, ±1.0 mM MnCl2, 25°C, 1:1 Langmuir global fit", "details": "protein: recombinant; tags: N-terminal His6 (pET14b); label: 5' biotin on top strand, immobilized on SA chip; blunt"}, "[6]": {"target": "T2, HP0593 …", "assay": "EMSA; no cofactor; up to 3.0 µM protein; EMSA: 10 mM potassium phosphate pH 5.5, 7 mM β-mercaptoethanol, 10% glycerol, no divalent metal, 10 min on ice, 0.5-5.0 µM protein, ~100 nM DNA, gel 0.5x TBE 4°C; SPR: 10 mM HEPES pH 7.4, 100 mM NaCl, 0.05% P-20, ±1.0 mM MnCl2, 25°C, 1:1 Langmuir global fit", "details": "protein: recombinant; tags: N-terminal His6 (pET14b); label: 32P; blunt"}}}
{"molecule": "Nc1ncnc2c1ncn2[C@@H]1O[C@H](C[C@@H](N)CC[C@H](N)C(=O)O)[C@@H](O)[C@H]1O", "note": "[sinefungin]", "values": [{"measurement": "EMSA of enzyme with 32P-labelled duplex 2 DNA", "setting": "HP0593 MTase; 10 µM sinefungin, pH 5.5", "value": "which is stabilized by AdoHcy and in some extent by sinefungin"}]}
{"molecule": "Nc1ncnc2c1ncn2[C@@H]1O[C@H](CSCC[C@H](N)C(=O)O)[C@@H](O)[C@H]1O", "note": "[AdoHcy]", "values": [{"measurement": "EMSA of enzyme with 32P-labelled duplex 2 DNA", "setting": "HP0593 MTase; 5 µM AdoHcy, 10 mM potassium phosphate pH 5.5", "value": "This suggested the formation of a stable ternary complex in the presence of AdoHcy"}]}
{"molecule": "HP0593 DNA-(N6-adenine)-methyltransferase (enzyme)", "values": [{"measurement": "stoichiometry N", "setting": "[1]", "value": 2}, {"measurement": "stoichiometry N", "setting": "[2]", "value": 2}, {"measurement": "stoichiometry N", "setting": "[3]", "value": 2}, {"measurement": "stoichiometry N", "setting": "[4]", "value": 2}]}
{"molecule": "B1", "values": [{"measurement": "Kd", "setting": "[5]", "value": 4.58, "unit": "nM"}]}
{"molecule": "B2", "values": [{"measurement": "binding result", "setting": "[6]", "value": "no binding"}]}
